Test results taken from article doi:10.1101/2020.10.05.326918 (bioRxiv, 2020).

T1: MED17 (Mus musculus (endogenous in CH12 cells), UniProt Q8VCD5 1-649)
T1 sequence (looked up): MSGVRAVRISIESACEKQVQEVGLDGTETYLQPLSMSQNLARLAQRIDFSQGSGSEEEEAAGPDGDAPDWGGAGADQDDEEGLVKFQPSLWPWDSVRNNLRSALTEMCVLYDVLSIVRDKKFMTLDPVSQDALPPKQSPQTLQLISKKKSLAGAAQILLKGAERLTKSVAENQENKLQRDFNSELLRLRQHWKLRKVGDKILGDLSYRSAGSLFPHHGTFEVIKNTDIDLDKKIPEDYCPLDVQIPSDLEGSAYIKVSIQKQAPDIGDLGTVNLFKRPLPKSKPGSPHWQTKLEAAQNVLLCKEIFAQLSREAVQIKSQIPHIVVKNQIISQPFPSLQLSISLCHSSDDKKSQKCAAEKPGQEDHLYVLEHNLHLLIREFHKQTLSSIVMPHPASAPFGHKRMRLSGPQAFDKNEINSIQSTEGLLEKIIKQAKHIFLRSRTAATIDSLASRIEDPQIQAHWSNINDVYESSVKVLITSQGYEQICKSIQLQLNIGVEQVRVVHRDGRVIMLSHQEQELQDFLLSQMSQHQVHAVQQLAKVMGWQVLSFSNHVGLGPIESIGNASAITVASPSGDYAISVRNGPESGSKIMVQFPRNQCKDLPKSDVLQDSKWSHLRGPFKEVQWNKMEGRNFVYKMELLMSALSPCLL

T2: MED27 (Mus musculus (endogenous in CH12 cells), UniProt Q9DB40 1-311)
T2 sequence (looked up): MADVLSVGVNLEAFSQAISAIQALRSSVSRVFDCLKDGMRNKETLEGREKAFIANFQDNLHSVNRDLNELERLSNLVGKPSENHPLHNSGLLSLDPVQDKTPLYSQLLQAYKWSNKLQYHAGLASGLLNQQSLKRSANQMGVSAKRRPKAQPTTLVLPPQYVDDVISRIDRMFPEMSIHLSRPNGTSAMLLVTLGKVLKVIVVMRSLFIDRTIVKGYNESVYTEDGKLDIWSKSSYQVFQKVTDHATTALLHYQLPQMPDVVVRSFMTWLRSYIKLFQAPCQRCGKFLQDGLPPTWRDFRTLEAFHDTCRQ

T3: MED23 (Mus musculus (endogenous in CH12 cells), UniProt Q80YQ2 1-1367)
T3 sequence (looked up): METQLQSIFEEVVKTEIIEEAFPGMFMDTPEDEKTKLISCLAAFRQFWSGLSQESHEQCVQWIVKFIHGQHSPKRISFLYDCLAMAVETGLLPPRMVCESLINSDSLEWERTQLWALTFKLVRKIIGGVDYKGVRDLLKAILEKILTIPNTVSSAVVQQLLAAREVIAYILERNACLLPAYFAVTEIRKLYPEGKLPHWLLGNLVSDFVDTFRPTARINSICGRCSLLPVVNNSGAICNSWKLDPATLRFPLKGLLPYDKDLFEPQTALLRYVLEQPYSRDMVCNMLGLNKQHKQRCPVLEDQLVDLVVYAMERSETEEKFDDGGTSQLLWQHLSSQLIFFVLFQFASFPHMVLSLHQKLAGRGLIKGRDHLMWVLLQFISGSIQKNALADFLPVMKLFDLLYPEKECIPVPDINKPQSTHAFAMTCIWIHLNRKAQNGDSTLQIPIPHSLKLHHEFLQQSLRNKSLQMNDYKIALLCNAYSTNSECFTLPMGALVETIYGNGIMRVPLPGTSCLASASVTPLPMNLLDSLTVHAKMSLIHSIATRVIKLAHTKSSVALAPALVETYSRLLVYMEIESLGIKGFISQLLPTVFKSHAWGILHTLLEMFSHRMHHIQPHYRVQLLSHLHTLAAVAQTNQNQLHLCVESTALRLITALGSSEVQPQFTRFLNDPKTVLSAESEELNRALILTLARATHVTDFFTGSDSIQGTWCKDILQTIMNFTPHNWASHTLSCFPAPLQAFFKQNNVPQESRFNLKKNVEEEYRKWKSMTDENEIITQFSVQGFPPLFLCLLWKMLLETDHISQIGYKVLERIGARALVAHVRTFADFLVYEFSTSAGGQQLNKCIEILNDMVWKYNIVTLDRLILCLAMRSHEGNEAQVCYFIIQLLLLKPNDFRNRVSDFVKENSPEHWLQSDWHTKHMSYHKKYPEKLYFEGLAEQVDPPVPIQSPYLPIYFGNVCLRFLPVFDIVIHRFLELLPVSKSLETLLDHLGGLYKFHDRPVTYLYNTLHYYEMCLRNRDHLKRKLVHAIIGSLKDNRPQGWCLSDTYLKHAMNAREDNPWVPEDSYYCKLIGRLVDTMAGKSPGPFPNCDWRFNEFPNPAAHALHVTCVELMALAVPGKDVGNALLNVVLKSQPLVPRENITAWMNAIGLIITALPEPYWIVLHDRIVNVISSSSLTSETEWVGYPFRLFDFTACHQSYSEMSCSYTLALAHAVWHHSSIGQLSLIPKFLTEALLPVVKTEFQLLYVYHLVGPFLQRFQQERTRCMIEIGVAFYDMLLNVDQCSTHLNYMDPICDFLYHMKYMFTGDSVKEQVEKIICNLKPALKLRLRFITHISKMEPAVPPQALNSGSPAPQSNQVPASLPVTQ

B1: MED20 (natural protein, Mus musculus (endogenous in CH12 cells), UniProt Q9R0X0 1-212, looked up)
chain: MGVTCVSQMPVAEGKSLQQTVELLTKKLEMLGAEKQGTFCVDCETYHTAASTLGSQGQAGKLMYVMHNSEYPLSCFALFENGPCLIADTNFDVLMVKLKGFFQSAKASKIETRGTRYQYCDFLVKVGTVTMGPSARGISVEVEYGPCVVASDCWSLLLEFLQSFLGSHAPGAPTVFGNRHDAVYGPADTMIQYMELFNKIRKQQQVPVAGIR
B2: MED24 (natural protein, Mus musculus (endogenous in CH12 cells), UniProt Q99K74 1-987, looked up)
chain: MKVVNLKQAILQAWKERWSDYQWAINMKKFFPKGATWDILNLAEALLEQAMIGPSPNPLILSYLKYAISSQMVSCSSVLTAISKFDDFSRDLCVQALLDIMDMFCDRLSCHGKAEECIGLCRALLSALHWLLRCTAASAERLQEGLEAGTPAPGEKQLALCLQCLEKTLSSTKNRALLHIAKLEEASSWTAIEHSLLKLGEILANLSNPQLRSQAERCGTLIRSIPSMLSVHSEQLHKTGFPTIHALILLEGTMNLTGEMQPLVEQLMMVKRMQHIPTPLFVLEIWKACFVGLIESPEGTQELKWTAFTYLKIPQVLVKLKKYFHGEKDFTEDVNCAFEFLLKLTPLLDKADQRCNCDCTNFLLQECNKQGLLSEVNFASLVGKRTADRDPQLKSSENANIQPNPGLILRAEPTVTNILKTMDADHSKSPEGLLGVLGHMLSGKSLDLLLAAAAATGKLKSFARKFINLNEFTTHGSGESTKTASVRALLFDISFLMLCHVAQTYGSEVILSESSSGEEVPFFETWMQTCMPEEGKILNPDHPCFRPDSTKVESLVALLNNSSEMKLVQMKWHEACLSISAAILEILNAWENGVLAFESIQKITDNIKGKVCSLAVCAVAWLVAHVRMLGLDEREKSLQMIRQLAGPLYSENTLQFYNERVVIMNSILEHMCADVLQQTATQIKFPSTGVDTMPYWNLLPPKRPIKEVLTDIFAKVLEKGWVDSRSIHILDTLLHMGGVYWFCNNLIKELLKETRKEHTLRAVQLLYSIFCLDMQQVTLVLLGHILPGLLTDSSKWHSLMDPPGTALAKLAVWCALSSYSSHKGQASSRQKKRHREDIEDYVSLFPVEDMQPSKLMRLLSSSDDDANILSSPTDRSMNSSLSASQLHTVNMRDPLNRVLANLFLLISSILGSRTAGPHTQFVQWFMEECVGCLEQDSRGSILQFMPFTTVSELVKVSAMSSPKVVLAITDLSLPLGRQVAAKAIAAL
B3: MED16 (natural protein, Mus musculus (endogenous in CH12 cells), UniProt Q6PGF3 1-828, looked up)
chain: MDLAYVCEWEKWAKSTYCPSLPLACAWSCRNLIAFTTDLRNDDQDLTHMIHILDTEHPWEVHSVSSGHSEAITCLEWDQSGSRLLSADADGQIKCWSMADHLANSWESSVGSQVEGDPIVALSWLHNGVKLALHVEKSGASSFGEKFSRVKFSPSLTLFGGKPMEGWIAVTVSGLVTVSLLKPSGQVLTSTESLCRLRGRVALADIAFTGGGNIVVAAADGSSASPVKFYKVCVSVVSEKCRIDTEILPSLFMRCTTDPNRKDRFPAITHLKFLARDMSEQVLLCASSQTSSLVECWSLRKEGLPVNNIFQQISPVVGDKQPMILKWRILSATNDLDRVSAVALPKLPISLTNTDLKVASDTQFYPGLGLALAFQDGSVHMVHRLSLQTMAVFYSSAPRSLDEPALKRPRTTCPAVHFKAMQLSWTSLALVGIDNHGKLSMLRISPSLGHPLEPKLALQHLLFLLEYCMVTGYDWWDILLHVQPGMVQSLVERLHEEYTRQKPALQQVLSTRILAMKASLCKLSPCTVARVCDYHTKLFLMAITSTLKSLLRPHFLNTPDKSPGDRLAEICAKITDVDIDKVMINLKTEEFVLDMNTLQALQQLLQWVGDFVLYLLVSLPNQGSPLRPGHSFLRDGTSLGMLRELMVVIRIWGLLKPSCLPVYTATSDTQDSMSLLFRLLTKLWICCRDEGAASEPDEGLVDECCLLPSQLLVPNLDWLPASDGLVSRLQPKQPLRLRFGRAPTLPSSTSTLQLDGLTRAPGQPKIDHLRRLHLGAYPTEECKACTRCGCVTMLKSPNKTTAVTQWEQRWIKNCLCGGLWRRVPLSCS
B4: MED4 (natural protein, Mus musculus (endogenous in CH12 cells), UniProt Q9CQA5 1-270, looked up)
chain: MAASSSGEKEKERMGGVSGMAGLGSTRERLLSALEDLEVLSRELIEMLAISRNQKLLQLEEENQVLELLIHRDGDFQELMKLALNQGKVHHEMQALEKEVEKRDSDIQQLQKQLKEAEQILATAVYQAKEKLKSIEKARKGAISSEEIIKYAHRISASNAVCAPLTWVPGDPRRPYPTDLEMRSGLLGQMNNPSTSGVNGHLPGDALAAGRLPDVLAPQYPWQSNDMSVNMLPPNHSSDFLLEPPGHNKENEDDVEVMSTDSSSSSSDSD

Legend:
Test in all cases: cryo-EM structure
[1] = biological target: T1, MED17
[2] = biological target: T2, MED27
[3] = biological target: MED1 (Mus musculus (endogenous in CH12 cells), UniProt Q925J9 1-1575)
MED1, sequence (Q925J9 whole entry): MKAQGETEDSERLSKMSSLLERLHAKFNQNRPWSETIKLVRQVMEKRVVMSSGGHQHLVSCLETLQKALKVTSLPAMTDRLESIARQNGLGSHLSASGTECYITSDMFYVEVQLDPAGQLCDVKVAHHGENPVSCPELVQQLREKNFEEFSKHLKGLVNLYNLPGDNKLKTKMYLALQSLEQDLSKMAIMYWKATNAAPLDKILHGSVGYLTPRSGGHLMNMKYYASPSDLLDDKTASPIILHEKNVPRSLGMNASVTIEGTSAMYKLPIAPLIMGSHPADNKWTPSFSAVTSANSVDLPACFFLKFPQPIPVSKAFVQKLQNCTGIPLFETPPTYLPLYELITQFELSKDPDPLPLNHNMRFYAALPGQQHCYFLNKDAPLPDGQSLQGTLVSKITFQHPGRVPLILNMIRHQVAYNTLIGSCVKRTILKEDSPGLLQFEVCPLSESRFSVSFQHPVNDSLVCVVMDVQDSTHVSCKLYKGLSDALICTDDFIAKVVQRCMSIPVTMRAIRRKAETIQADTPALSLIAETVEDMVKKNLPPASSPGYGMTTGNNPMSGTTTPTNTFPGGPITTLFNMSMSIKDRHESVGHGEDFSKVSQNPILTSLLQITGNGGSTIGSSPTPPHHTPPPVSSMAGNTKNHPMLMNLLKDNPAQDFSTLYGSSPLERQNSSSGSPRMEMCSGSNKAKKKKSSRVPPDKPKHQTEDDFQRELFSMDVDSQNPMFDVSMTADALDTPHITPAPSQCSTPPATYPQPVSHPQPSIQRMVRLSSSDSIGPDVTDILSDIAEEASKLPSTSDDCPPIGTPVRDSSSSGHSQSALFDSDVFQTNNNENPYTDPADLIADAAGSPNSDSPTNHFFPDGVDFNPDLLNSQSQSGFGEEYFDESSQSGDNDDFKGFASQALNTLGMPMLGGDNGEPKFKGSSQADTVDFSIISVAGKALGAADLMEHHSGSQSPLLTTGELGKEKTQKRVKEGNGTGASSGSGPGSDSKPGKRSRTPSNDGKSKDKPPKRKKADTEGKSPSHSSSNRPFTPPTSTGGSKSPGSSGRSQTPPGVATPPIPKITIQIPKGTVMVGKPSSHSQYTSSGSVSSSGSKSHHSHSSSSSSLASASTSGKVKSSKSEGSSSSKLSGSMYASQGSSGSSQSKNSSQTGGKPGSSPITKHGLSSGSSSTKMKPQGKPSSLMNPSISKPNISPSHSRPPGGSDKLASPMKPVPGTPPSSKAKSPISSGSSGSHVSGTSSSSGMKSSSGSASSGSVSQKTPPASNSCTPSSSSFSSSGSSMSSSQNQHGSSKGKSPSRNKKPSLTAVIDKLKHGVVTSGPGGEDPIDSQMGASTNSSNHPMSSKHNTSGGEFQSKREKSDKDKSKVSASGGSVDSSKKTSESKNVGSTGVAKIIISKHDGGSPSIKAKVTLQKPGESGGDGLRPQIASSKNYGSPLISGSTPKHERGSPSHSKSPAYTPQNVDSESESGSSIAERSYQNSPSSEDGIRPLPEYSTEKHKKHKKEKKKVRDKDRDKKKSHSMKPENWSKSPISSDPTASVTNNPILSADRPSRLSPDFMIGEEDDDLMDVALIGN

[4] = biological target: B2
[5] = biological target: T3, MED23

B1
binding result [1]: binds | binding result [2]: binds

B2
binding result [3]: binds

B3
binding result [4]: binds | binding result [5]: binds

B4
binding result [3]: binds
